Measurements as given in PMC4601640, “Stability of the Human Hsp90-p50^Cdc37 Chaperone Complex against Nucleotides and Hsp90 Inhibitors, and the Influence of Phosphorylation by Casein Kinase 2” (Molecules, 2015).
Entries after “also recorded” stand apart in the source; their conditions may differ.

How the values were obtained:
p50Cdc37 1-378 = p50Cdc37 1-378 (UniProt Q16543); test: ELISA on immobilized GST-p50Cdc37, nucleotide dose-response; settings: for other: IC50 of ADP against complex: ADP titration; for other: IC50 of ATP against complex: ATP titration
[1] = biological target: human full-length Hsp90β (human) (UniProt P08238); test: SEC; analytical Superdex200 10/300 GL, room temperature, 0.3 mL/min; 85 µM protein in 50 mM HEPES pH 7.5, 50 mM KCl, 5 mM MgCl2, 1 mM DTT; fractions on SDS-PAGE
Hsp90β = Hsp90β (UniProt P08238); test: ELISA on immobilized GST-p50Cdc37, nucleotide dose-response; settings: sites S13
[2] = biological target: Hsp82 (Saccharomyces cerevisiae) (UniProt P02829); settings: cited from earlier work
[3] = reference: unphosphorylated Hsp90β, sites S226,S255
[4] = reference: both proteins unphosphorylated, sites S226,S255,S13

human full-length Hsp90β, P08238 1-724 (natural protein; other documents disagree on this pair), sequence (P08238 whole entry): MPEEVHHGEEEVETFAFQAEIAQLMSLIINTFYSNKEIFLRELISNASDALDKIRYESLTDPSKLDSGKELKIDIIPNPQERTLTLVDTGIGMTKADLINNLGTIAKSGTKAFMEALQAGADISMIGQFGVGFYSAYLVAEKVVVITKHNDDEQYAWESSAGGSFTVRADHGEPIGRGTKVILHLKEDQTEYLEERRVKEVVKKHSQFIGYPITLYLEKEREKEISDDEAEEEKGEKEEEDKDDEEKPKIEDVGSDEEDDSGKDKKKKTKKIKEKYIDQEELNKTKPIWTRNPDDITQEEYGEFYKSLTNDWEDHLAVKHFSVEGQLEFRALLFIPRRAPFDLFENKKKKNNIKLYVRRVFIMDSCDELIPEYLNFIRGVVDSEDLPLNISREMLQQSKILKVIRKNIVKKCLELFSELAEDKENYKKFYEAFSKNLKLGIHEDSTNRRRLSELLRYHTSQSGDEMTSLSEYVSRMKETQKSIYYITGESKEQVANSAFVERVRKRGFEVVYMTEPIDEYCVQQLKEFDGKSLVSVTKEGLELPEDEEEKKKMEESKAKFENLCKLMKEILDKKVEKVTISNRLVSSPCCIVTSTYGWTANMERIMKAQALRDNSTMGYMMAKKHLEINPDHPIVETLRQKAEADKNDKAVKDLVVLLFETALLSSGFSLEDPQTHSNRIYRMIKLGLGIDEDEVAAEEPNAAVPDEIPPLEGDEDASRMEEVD
p50Cdc37, sequence (Q16543 whole entry): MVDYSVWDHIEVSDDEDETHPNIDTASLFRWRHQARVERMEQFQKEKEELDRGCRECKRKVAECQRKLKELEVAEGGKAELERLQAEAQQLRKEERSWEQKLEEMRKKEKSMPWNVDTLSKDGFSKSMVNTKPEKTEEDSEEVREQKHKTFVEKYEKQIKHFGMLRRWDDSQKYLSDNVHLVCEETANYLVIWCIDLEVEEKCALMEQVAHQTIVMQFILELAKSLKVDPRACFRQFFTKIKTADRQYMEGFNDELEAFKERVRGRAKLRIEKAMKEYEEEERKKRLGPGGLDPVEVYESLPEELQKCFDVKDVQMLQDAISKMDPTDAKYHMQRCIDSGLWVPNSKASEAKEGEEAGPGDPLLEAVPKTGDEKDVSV
Hsp82 (Saccharomyces cerevisiae), sequence (P02829 whole entry): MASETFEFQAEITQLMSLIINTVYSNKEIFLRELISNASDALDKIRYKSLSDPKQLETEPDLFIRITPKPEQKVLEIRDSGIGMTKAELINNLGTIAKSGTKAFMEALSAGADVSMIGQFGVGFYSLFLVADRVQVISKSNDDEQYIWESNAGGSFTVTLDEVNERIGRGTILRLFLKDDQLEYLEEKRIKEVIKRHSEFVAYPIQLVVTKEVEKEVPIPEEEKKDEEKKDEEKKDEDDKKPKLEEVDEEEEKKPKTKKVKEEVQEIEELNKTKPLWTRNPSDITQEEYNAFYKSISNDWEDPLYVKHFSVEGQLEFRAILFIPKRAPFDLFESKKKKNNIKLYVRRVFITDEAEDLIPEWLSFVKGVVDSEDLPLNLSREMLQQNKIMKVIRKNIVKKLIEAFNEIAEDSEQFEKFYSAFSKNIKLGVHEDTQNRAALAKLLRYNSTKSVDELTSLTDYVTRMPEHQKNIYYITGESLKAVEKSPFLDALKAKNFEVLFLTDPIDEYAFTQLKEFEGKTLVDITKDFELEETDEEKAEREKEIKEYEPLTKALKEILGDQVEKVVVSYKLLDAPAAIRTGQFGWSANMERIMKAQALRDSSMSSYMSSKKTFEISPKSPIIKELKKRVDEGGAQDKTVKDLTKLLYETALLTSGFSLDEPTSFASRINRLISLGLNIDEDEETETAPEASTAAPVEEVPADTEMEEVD

Hsp90β (from UniProt P08238) CK2α-phosphorylated Hsp90β, ADP titration
other: IC50 of ADP against complex (p50Cdc37 1-378; [3]): weaker; reference 500 ± 94; also recorded: weaker; reference 270 ± 35

Hsp90β (from UniProt P08238) CK2α-phosphorylated Hsp90β, ATP titration
other: IC50 of ATP against complex (p50Cdc37 1-378; [3]): weaker; reference >1000

Hsp90β (from UniProt P08238) both proteins CK2α-phosphorylated, ADP titration
other: IC50 of ADP against complex (p50Cdc37 1-378; [4]): weaker; reference 500 ± 94

Hsp90β (from UniProt P08238) both proteins CK2α-phosphorylated, ATP titration
other: IC50 of ATP against complex (p50Cdc37 1-378; [4]): weaker; reference >1000

human full-length Hsp90β, P08238 1-724 (natural protein; other documents disagree on this pair)
stoichiometry N [1]: 2

p50Cdc37 1-378 (from UniProt Q16543) CK2α-phosphorylated p50Cdc37, ADP titration
other: IC50 of ADP against complex (Hsp90β; reference: unphosphorylated p50Cdc37, ADP titration): weaker; reference 500 ± 94; also recorded: weaker; reference 220 ± 24

p50Cdc37 1-378 (from UniProt Q16543) CK2α-phosphorylated p50Cdc37, ATP titration
other: IC50 of ATP against complex (Hsp90β; reference: unphosphorylated p50Cdc37, ATP titration): same; reference >1000

p50Cdc37 (from UniProt Q16543)
Kd [2]: 1460 nM
